Experimental data reported in publication PMC4788467 (Leukemia, 2015).

T1: WT1 126-134 (RMFPNAPYL) peptide alone (human)
T1 chain: RMFPNAPYL


Tests used:
[1] = target: biotinylated soluble HLA-A2/WT1_(126) (…) complex (Homo sapiens, HLA-A*02:01, biotin (the complex is biotinylated; site not stated)); test: SPR
[2] = target: HLA-A2/WT1 187-195 (…) monomer (Homo sapiens, HLA-A*02:01, biotin (the complex is biotinylated; site not stated)); test: ELISA
[3] = target: HLA-A2/WT1 235-243 (…) monomer (Homo sapiens, HLA-A*02:01, biotin (the complex is biotinylated; site not stated)); test: ELISA
[4] = target: T1, WT1 126-134 (RMFPNAPYL) peptide alone; test: ELISA

Kd [1] [nM] | koff [1] [s⁻¹] | kon [1] [M⁻¹ s⁻¹] | binding result [2] | binding result [3] | binding result [4] | Binder
14.1 | 0.00177 | 126000 |  |  |  | S3.6 scFv (scFv, V domains shown) VH: EVQLLESGGGLVQPGGSLRLSCAASGFTFSSYAMSWVRQAPGKGLEWVSLIDPWGQETLYADSVKGRFTISRDNSKNTLYLQMNSLRAEDTAVYYCAKLTGRFDYWGQGTLVTVSS VL: DIQMTQSPSSLSASVGDRVTITCRASQSISNYLNWYQQKPGKAPKLLIYSASQLQSGVPSRFSGSGSGTVFTLTISSLQPEDFATYYCQQGPGTPNTFGQGTKVEIK
 | 5.35e-05 | 22000 |  |  |  | S3.3 scFv (scFv, V domains shown) VH: EVQLLESGGGLVQPGGSLRLSCAASGFTFSSYAMSWVRQAPGKGLEWVSLIDPWGQETLYADSVKGRFTISRDNSKNTLYLQMNSLRAEDTAVYYCAKLTGRFDYWGQGTLVTVSS VL: NIQMTQSPSSLSASVGDRVTITCRASQSISSYLNWYQQKPGKAPKLLIYSASLLQSGVPSRFSGNGSGTDFTLTISSLQPEDFATYYCQQGPGTPNTFGQGTKVEIK
0.002 | 1.15e-06 | 484000 | no binding | no binding | no binding | Q2L scFv-Fc (Fc fusion) VH: EVQLLESGGGLVQPGGSLRLSCAASGFTFSSYAMSWVRQAPGKGLEWVSLIDPWGQETLYADSVKGRFTISRDNSKNTLYLQMNSLRAEDTAVYYCAKLTGRFDYWGQGTLVTVSS VL: DIQMTQSPSSLSASVGDRVTITCRASQSISSYLNWYQQKPGKAPKLLIYSASLLQSGVPSRFSGSGSGTDFTLTISSLQPEDFATYYCQQGPGTPNTFGQGTKVEIK
12.9 | 0.00191 | 148000 |  |  |  | S3.1 scFv (scFv, V domains shown) VH: EVQLLESGGGLVQPGGSLRLSCAASGFTFSSYAMSWVRQAPGKGLEWVSLIDPWGQETLYADSVKGRFTISRDNSKNTLYLQMNSLGAEDTAVYYCAKLTGRFDYWGQGTLVTVSS VL: DIQMTQSPSSLSASVGDRVTITCRASQSISSYLNWYQQKPGKAPKLLIYSASQLQSGVPSRFSGSGSGTDFTLTISNLQPEDFATYYCQQGPGTPNTFGQGTKVEIK
58.3 |  | 94300 |  |  |  | Q1L scFv (scFv, V domains shown) VH: EVQLLESGGGLVQPGGSLRLSCAASGFTFSSYAMSWVRQAPGKGLEWVSLIDPWGQETLYADSVKGRFTISRDNSKNTLYLQMNSLRAEDTAVYYCAKLTGRFDYWGQGTLVTVSS VL: DIQMTQSPSSLSASVGDRVTITCRASQSISSYLNWYQQKPGKAPKLLIYSASQLQSGVPSRFSGSGSGTDFTLTISSLQPEDFATYYCQQGPGTPNTFGQGTKVEIK
3.08 | 0.000355 | 115000 | no binding | no binding | no binding | Q2L scFv (scFv, V domains shown) VH: EVQLLESGGGLVQPGGSLRLSCAASGFTFSSYAMSWVRQAPGKGLEWVSLIDPWGQETLYADSVKGRFTISRDNSKNTLYLQMNSLRAEDTAVYYCAKLTGRFDYWGQGTLVTVSS VL: DIQMTQSPSSLSASVGDRVTITCRASQSISSYLNWYQQKPGKAPKLLIYSASLLQSGVPSRFSGSGSGTDFTLTISSLQPEDFATYYCQQGPGTPNTFGQGTKVEIK
